# Read-outs that look alike come from different tables or passages of the source. No end group written: not given here.
# B1: Murine ADM 1-50 (peptide)
# peptide: YRQSMNQGSRSNGCRFGTCTFQKLAHQIYQLTDKDKDGMAPRNKISPQGY-NH2
# modifications: ends and bridges not checked
# B2: mature human Adrenomedullin (Human ADM 1-52) (peptide)
# peptide: YRQSMNNFQGLRSFGCRFGTCTVQKLAHQIYQFTDKDKDNVAPRSKISPQGY-NH2
# modifications: ends and bridges not checked
# Legend:
# [1] = target: T1, human recombinant adrenomedullin receptor (CRLR + RAMP3) (human); assay: cell-based or functional assay
# [2] = target: T1, human recombinant adrenomedullin …; assay: cell-based or functional assay; remark: listed apart in the source
# T1 sequence (Q16602 whole entry, chain 1 of 2): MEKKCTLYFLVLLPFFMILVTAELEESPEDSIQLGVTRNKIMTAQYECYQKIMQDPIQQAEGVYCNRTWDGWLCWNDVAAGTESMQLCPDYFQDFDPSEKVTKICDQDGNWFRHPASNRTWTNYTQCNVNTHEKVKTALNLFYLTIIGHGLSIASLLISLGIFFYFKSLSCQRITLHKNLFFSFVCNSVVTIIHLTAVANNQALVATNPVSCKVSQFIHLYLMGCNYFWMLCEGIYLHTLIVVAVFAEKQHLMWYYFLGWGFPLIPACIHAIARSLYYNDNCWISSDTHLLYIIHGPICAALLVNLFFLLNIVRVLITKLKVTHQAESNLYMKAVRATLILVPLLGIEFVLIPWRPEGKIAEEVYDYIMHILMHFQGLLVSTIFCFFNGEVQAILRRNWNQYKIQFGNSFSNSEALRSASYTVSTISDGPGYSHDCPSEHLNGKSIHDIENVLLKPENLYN
# T1 sequence (O60896 whole entry, chain 2 of 2, further chain): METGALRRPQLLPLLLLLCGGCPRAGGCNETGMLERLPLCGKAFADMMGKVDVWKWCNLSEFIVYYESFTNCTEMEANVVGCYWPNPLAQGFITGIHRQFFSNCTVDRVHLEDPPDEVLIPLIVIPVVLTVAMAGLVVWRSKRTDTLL
Binder,EC50 (read off the curve) [1] [nM],EC50 (read off the curve) [2] [nM]
B1,~0.09,–
B2,–,~1
